Test in all cases: flow cytometry, HEK 293 cells overexpressing the target
Experiment [1] has as its target cynomolgus monkey nectin-4 protein expressed on the surface of HEK 293 cells (cynomolgus monkey).
The target of experiment [2] is human nectin-4 protein expressed on the surface of cells (human) (UniProt Q96NY8).
Experiment [3] deals with mouse nectin-4 protein expressed on the surface of HEK 293 cells (mouse) (UniProt Q8R007).
In experiment [4] the target is rat nectin-4 protein expressed on the surface of HEK 293 cells (rat) (UniProt D3ZET1).

Sequence of mouse nectin-4 protein expressed on the surface of HEK 293 cells (mouse) (Q8R007 31-508): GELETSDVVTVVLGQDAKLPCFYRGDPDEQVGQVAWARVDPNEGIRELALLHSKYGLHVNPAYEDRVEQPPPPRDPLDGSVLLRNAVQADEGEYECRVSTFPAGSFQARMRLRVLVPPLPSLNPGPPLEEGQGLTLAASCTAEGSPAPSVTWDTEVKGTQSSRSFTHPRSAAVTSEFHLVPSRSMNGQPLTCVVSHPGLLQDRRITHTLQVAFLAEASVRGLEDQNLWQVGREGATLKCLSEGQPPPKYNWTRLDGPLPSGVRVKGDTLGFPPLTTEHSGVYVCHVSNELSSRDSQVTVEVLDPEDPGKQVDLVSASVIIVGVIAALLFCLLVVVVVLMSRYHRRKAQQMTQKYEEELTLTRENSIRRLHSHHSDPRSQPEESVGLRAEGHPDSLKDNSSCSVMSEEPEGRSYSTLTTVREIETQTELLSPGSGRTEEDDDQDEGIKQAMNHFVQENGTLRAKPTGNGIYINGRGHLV
Sequence of human nectin-4 protein expressed on the surface of cells (human) (Q96NY8 32-510 limits assumed): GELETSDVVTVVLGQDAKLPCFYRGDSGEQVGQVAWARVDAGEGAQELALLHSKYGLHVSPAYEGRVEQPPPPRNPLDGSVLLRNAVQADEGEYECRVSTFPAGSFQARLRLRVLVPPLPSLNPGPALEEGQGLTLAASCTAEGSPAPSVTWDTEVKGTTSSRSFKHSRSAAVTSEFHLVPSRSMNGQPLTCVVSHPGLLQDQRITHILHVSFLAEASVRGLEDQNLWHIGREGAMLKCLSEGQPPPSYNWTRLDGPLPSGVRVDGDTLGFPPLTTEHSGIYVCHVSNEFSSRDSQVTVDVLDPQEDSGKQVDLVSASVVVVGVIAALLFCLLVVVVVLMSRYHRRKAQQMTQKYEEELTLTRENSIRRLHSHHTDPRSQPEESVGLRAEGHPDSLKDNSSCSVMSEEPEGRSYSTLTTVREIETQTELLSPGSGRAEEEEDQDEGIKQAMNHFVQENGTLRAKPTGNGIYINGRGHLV

Regarding Anti-FITC Isotype Control (antibody), the Flow data was found to be 189 in experiment [1], 132 in experiment [2], 163 in experiment [3] and 196 in experiment [4].

The values are drawn from patent US20250101098A1.
